Measurements as given in paper PMC12002104, “Identification and Protein Engineering of Galactosidases for the Conversion of Blood Type B to Blood Type O” (Chembiochem, 2025).

What was measured:
[1] = test system: T1, O=[N+]([O-])c1ccc(O[C@H]2O[C@H](CO)[C@H](O)[C@H](O)[C@H]2O)cc1; experiment: purified protein; type: biochemical, Pedobacter panaciterrae
T1 construct: recombinant, E. coli BL21 Gold (DE3), pET28(a), N-terminal His-tag kept for kinetics (thrombin site); for crystals His-tag cut off at introduced TEV site

[2] = substrate: O=[N+]([O-])c1ccc(O[C@H]2O[C@H](CO)[C@H](O)[C@H](O)[C@H]2O)cc1; experiment: purified protein; type: biochemical, Bacteroides fragilis; details: 50 mM sodium phosphate pH 7.5
[3] = 50 mM sodium phosphate pH 7.5, 25.0 °C

PpaGal (Pedobacter panaciterrae) gave a Km ([1]; 50 mM sodium phosphate pH 7.5) of 3.512 ± 0.413 mM.

Molecule PpaGal (Pedobacter panaciterrae; W227Y) has a Km [1, 3] of 3.43 ± 0.34 mM and a kcat [1, 3] of 0.25 ± 0.01 s⁻¹.

B1: BfGalB (Bacteroides fragilis NCTC 9343) (protein)
chain: QERVYDISQFGLKANSKKNASPVVRKAIAKIKAECRDGEKVILRFPAGRYNFHEAGSTVREYYISNHDQDNPKKVGIALEDMKNLTIDGQGSEFVFYGRMIPVSLLRSENCVLKNFSIDFEQPHIAQVQVVENDPEKGITFEPAPWVDYRISKDSVFEGLGEGWVMRYSWGIAFDGKTKHVVYNTSDIGCPTKGAFEVAPRRICSPKWKDARLVPGTVVAMRGWGRPTPGIFMSHDVNTSLLDVKVHYAEGMGLLAQLCEDITLDGFGVCLKGDNDPRYFTTQADATHFSGCKGKIVSKNGLYEGMMDDAINVHGTYLKVIKRVDDHTLIGRYMHDQSWGFEWGRPGDDVQFVRSETMELIGKQNQITAIRPYDKGEIRGAREFSITFKEAIDPAINEKSGFGIENLTWTPEVLFAGNTIRNNRARGTLFSTPKKTVVEDNLFDHTSGTAILLCGDCNGWFETGACRDVTIRRNRFINALTNMFQFTNAVISIYPEIPNLKDQQKYFHGGKDGGIVIEDNEFDTFDAPILYAKSVDGLIFRNNVIKTNTEFKPFHWNKDRFLLERVTNVKISE
notes: recombinant, E. coli BL21 Gold (DE3), pET28(a), N-terminal His-tag, thrombin site
B1 gave a Km [2] of 6.950 ± 0.710 mM and a kcat [2] of 0.753 ± 0.082 s⁻¹.
